How the values were obtained:
Assay in all cases: SPR
[1] = biological target: NGM438, humanized IgG1 effector-less monoclonal antibody against LAIR1
[2] = biological target: recombinant human LAIR1-his (Homo sapiens, UniProt Q6GTX8)
[3] = biological target: LAIR1 from mouse (Mus musculus, UniProt Q8BG84)
[4] = biological target: human LAIR2 (Homo sapiens, UniProt Q6ISS4)
[5] = biological target: LAIR1 from rat (Rattus norvegicus, UniProt P0C1X9)
Sequence of LAIR1 from rat (P0C1X9 22-263): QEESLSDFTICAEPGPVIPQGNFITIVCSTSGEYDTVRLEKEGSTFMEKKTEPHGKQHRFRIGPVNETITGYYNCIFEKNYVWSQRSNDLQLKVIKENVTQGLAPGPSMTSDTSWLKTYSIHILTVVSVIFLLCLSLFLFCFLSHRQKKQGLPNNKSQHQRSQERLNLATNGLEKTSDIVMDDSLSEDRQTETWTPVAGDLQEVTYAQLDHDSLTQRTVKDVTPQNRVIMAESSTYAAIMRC

Sequence of LAIR1 from mouse (Q8BG84 22-263): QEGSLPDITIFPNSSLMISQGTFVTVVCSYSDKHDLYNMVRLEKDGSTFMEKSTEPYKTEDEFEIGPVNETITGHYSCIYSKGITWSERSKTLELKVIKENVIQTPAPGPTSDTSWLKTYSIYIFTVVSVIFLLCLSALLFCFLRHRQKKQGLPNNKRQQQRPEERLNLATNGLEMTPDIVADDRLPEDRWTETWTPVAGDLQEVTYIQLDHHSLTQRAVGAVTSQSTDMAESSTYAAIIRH
Sequence of human LAIR2 (Q6ISS4 22-152): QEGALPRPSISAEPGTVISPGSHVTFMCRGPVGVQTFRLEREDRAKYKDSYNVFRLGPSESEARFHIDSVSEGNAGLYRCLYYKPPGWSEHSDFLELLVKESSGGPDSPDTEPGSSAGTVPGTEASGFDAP
Sequence of recombinant human LAIR1-his (Q6GTX8 22-287): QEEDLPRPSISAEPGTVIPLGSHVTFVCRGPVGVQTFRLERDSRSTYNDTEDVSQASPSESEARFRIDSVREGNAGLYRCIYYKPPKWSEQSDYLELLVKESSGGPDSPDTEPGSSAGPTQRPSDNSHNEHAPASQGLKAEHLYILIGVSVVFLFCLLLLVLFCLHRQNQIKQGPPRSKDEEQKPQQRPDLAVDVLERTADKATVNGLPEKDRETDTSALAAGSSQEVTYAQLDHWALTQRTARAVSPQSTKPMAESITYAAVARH

| Kd [1] [nM] | Kd [2] [nM] | binding result [3] | binding result [4] | binding result [5] | Molecule |
| --- | --- | --- | --- | --- | --- |
| 4.28 | – | – | – | – | recombinant cynomolgus monkey LAIR1-his (receptor) |
| – | 0.26 ± 0.03 | no binding | no binding | no binding | NGM438, humanized IgG1 effector-less monoclonal antibody against LAIR1 (antibody, V domains shown) VH: EVQLVESGGGLVQPGGSLRLSCAASGFTFNINAMNWVRQAPGKGLEWVARIRTKNYNYATFYADSVKDRFTISRDDSKNSLYLQMNSLKTEDTAVYYCVRDRAGFFAYWGQGTTVTVSS VL: DIQMTQSPSSLSASVGDRVTITCLASQTIGTWLGWYQQKPGKAPKLLIYAATSLAEGVPSRFSGSGSGTDFTLTISSLQPEDFATYYCQQLYSTPLTFGGGTKVEIK |
